Patent publication US20050106141A1, “Hairless protein-interacting partner complexes and methods thereof for the beautification and/or improvement of mammalian skin” (The Procter & Gamble Company, priority 2003, published 2005)

Target: LexA BD-HRt (mouse)
Experiment: yeast two-hybrid library screen; number of positive clones with this identity

Sequence of LexA BD-HRt (mouse) (P0A7C2 other isoform, or with tags, fused parts or gaps limits assumed): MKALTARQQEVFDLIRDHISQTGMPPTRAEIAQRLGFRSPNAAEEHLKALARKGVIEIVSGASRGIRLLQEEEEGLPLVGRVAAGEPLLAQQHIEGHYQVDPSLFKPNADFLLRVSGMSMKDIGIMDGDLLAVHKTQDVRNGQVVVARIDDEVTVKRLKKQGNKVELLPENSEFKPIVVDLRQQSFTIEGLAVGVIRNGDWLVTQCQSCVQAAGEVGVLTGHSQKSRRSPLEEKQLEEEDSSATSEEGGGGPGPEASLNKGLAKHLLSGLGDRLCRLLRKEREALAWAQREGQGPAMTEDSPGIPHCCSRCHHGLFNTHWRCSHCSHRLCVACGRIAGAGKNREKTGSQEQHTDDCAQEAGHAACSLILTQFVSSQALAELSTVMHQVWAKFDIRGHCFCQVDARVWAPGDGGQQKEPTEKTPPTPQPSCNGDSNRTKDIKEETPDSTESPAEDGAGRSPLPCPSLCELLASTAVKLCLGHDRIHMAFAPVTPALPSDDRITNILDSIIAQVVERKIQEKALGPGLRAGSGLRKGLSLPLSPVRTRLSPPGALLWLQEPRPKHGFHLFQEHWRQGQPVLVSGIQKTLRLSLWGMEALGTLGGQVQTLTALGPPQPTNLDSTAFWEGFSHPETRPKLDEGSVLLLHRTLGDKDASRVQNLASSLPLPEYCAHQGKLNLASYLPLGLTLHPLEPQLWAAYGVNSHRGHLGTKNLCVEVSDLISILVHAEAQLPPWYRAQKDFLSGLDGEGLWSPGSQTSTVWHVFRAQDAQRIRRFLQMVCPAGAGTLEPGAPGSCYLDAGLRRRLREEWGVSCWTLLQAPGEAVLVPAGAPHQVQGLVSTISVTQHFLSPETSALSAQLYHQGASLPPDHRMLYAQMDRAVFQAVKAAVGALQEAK

## Homo Sapiens HIC Protein Isoform P32 and Isoform 40 (from UniProt Q9P1T7 1-246)
  Hits: 1
